Laboratory results reported in publication PMC4804311.

Key:
[1] = target: CTD released by factor Xa from full-length proRgpB662iXa produced in P. gingivalis (Porphyromonas gingivalis W83) (UniProt P95493); experiment: cross-linking; glutaraldehyde (0.01-0.1%) in PBS, 5 min at 37 °C, stopped with 100 mM Tris; protein at 1, 0.5 and 0.1 mg/ml; SDS-PAGE and Western blot
[2] = target: recombinant C-terminal domain (CTD) of gingipain B (RgpB) (Porphyromonas gingivalis W83) (UniProt P95493); experiment: SEC; Superdex 75 10/300 GL, 50 mM Tris, 150 mM NaCl, 2.5 mM CaCl2, 0.02% NaN3 pH 7.5; fractions analysed by Western blot with anti-rCTD antibodies
[3] = target: recombinant C-terminal domain (CTD) of gingipain B (RgpB) (Porphyromonas gingivalis W83) (UniProt P95493); experiment: cross-linking; glutaraldehyde (0.01-0.1%) in PBS, 5 min at 37 °C, stopped with 100 mM Tris; protein at 1, 0.5 and 0.1 mg/ml; SDS-PAGE and Western blot
[4] = target: recombinant C-terminal domain (CTD) of gingipain B (RgpB) (Porphyromonas gingivalis W83) (UniProt P95493); experiment: cross-linking; data not shown: rCTD and r664i6H at 0.1 mg/ml exposed to 0.1, 0.05 and 0.01% glutaraldehyde

## CTD released by factor Xa from full-length proRgpB662iXa produced in P. gingivalis (from UniProt P95493 663-736) (domain or fragment)
[1]
  stoichiometry N: 2

## recombinant C-terminal domain (CTD) of gingipain B (RgpB) (from UniProt P95493 664-736) (domain or fragment)
[2]
  stoichiometry N: 2
[3]
  stoichiometry N: 2
[4]
  stoichiometry N: 2
